From article PMC8100176, “Cryo-EM structure of ABCG5/G8 in complex with modulating antibodies” (Communications Biology, 2021)
Blank lines part the entries; values can stand above or below the binder they belong to.

Experiments:
[1] = target: T1, ABCG5/G8 heterodimer (ATP-binding cassette transporters ABCG5 and ABCG8), human, full length (Homo sapiens, UniProt Q9H222;Q9H221); assay: SPR; Biacore T200, CM5 chip with goat anti-mouse IgG Fc antibody capturing the mouse anti-ABCG5/G8 mAbs (~100 Ru); ABCG5/G8 in DDM micelles, multicycle kinetics, 6 pM to 100 nM, 50 µL/min, 180 s association, 1800 s dissociation (the legend of Fig. 1 says instead that mAb was injected over immobilized ABCG5/G8); conditions: both partners purified
T1 construct: ABCG5, human, full length; followed by a TEV protease cleavage site and a 12 His tag on the C-terminus; ABCG8, human, full length; In DDM micelles for SPR and the ATPase assay; in saposin A-based nanodiscs for cryo-EM; also called ABCG5/ABCG8; source: Pichia pastoris (ATUM-9016 strain), membranes extracted with DDM, purified (HisTrap, Superdex 200)
T1 sequence (Q9H222 whole entry, chain 1 of 2): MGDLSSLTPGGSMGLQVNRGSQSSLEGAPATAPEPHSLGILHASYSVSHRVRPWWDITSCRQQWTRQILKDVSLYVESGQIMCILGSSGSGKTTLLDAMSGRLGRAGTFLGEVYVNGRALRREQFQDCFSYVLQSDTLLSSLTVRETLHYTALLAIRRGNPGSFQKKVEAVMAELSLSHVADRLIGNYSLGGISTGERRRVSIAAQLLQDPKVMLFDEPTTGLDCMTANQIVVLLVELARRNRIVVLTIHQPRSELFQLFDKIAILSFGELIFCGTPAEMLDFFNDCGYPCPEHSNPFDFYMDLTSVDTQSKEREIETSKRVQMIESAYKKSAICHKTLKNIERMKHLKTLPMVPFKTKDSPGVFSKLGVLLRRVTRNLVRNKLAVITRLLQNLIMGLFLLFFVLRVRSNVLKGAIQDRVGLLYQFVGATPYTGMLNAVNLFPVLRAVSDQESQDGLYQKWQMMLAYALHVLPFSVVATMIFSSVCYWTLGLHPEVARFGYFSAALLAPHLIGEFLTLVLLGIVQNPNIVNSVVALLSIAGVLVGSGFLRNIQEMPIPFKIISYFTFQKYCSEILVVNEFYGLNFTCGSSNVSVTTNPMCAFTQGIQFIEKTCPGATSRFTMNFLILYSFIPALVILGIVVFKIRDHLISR
T1 sequence (Q9H221 whole entry, chain 2 of 2): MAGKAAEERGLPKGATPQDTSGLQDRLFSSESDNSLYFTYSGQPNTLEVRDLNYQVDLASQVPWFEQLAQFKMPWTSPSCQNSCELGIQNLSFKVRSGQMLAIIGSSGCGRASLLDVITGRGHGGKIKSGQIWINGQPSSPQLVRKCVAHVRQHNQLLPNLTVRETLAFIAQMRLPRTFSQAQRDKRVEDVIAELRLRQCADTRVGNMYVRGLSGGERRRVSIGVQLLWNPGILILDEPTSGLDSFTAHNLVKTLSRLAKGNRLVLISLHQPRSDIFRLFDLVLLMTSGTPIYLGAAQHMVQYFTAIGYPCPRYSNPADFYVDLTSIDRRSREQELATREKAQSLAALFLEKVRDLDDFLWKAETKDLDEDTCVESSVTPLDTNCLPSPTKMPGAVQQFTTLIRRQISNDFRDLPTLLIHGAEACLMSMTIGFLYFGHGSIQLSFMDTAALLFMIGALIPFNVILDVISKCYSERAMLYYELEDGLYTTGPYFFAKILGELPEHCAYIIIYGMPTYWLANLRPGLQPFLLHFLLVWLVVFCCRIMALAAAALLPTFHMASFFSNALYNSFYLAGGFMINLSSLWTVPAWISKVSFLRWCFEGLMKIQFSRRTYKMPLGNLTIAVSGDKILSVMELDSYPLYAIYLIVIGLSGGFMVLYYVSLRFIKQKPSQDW

[2] = target: T2, ABCG8 (ATP-binding cassette transporter G8), human, full length, half transporter of the ABCG5/G8 heterodimer (human, UniProt Q9H221); assay: cryo-EM structure; ternary complex of ABCG5/G8 with Fab 2E10 and Fab 11F4, purified by size exclusion, in saposin A-based nanodiscs; nucleotide-free, inward-facing; 3.3 Å; conditions: both partners purified
T2 construct: ABCG8, human, full length; Same chain as the second chain of m1; written alone for the contacts seen in the structure; First residue seen in the cryo-EM structure is Phe28; source: Pichia pastoris (ATUM-9016 strain), expressed with ABCG5 and purified as the heterodimer (HisTrap, Superdex 200)
T2 sequence (Q9H221 whole entry, one chain of several): as the sequence (Q9H221 whole entry, chain 2 of 2) above

B2: Fab fragment of monoclonal antibody 11F4 (Fab, V domains shown)
VH: DVQLQESGPGLVKPSQSLSLTCTITGYSITSDYAWNWIRQFPGNKLEWMGYISYSGTTYYNPSLKSRFSITRDTSRNQFFLQFNSVTTEDTGTYFCARMITTVYYFDYWGQGTTLTVSS
VL: QIVLTQSPTIMSASLGERVTMTCTASSSASSSYLHWYQQKPGSSPKLWIYSTSNLASGVPARFSGSGSGTSYSLTISNMEAEDAATYYCHQHHRSPPTFGAGTKLELK
notes: also called Fab 11F4; Fab11F4; source: papain cleavage of mAb 11F4, purified by gel filtration chromatography
binding result [2]: binds

B4: Fab fragment of monoclonal antibody 2E10 (Fab, V domains shown)
VH: QVHLQQSGAELVRPGTSVKMSCKAAGYTFTYWWIGWLKQRPGHGLEWIGDFFPVSGHTNFNEKFRDKATLTADTSSSTAYMQLNSLTSEDSAIYYCARKQDSSGPLYAMDYWGQGTSVTVSS
VL: DIQMTQSSSYLSVSLGGRVTITCKASDHINNWLAWYQQKPGNAPRLLISAATSLETGVPSRFSGSGSGKDYTLSIISLQTEDVATYYCQQYWSTPFTFGSGTKLEIK
notes: also called Fab 2E10; source: papain cleavage of mAb 2E10, purified by gel filtration chromatography
binding result [2]: binds

The remaining lines, values ahead:

Kd [1]: 0.12 nM
B1: monoclonal antibody 11F4 against ABCG5/G8 (antibody, V domains shown)
VH: B2 VH
VL: B2 VL
notes: the Fab part of the heavy chain is in PDB 7JR7 (as the heavy chain of m5); as the light chain of m5, in PDB 7JR7; Mouse IgG (captured by goat anti-mouse IgG Fc); also called mAb 11F4; source: produced at the antibody core facility at Oregon Health Science University

Kd [1]: 0.11 nM
B3: monoclonal antibody 2E10 against ABCG5/G8 (antibody, V domains shown)
VH: B4 VH
VL: B4 VL
notes: the Fab part of the heavy chain is in PDB 7JR7 (as the heavy chain of m4); as the light chain of m4, in PDB 7JR7; Mouse IgG (captured by goat anti-mouse IgG Fc); also called mAb 2E10; source: produced at the antibody core facility at Oregon Health Science University
